Test [1] deals with T1, SARS-CoV-2 RBD-Fc fusion protein (residues 331-524 of SARS-CoV-2 S protein with a C-terminal Fc of human IgG1) (SARS-CoV-2; human).
T1 construct: also called SARS-CoV-2 RBD protein; SARS-CoV-2 RBD-Fc protein
Kind of test: ELISA, RBD-Fc coated at 1 µg/ml, sDPP4 serially diluted.

Test [2] has as its target T1, SARS-CoV-2 RBD-Fc fusion protein …. Kind of test: flow cytometry on hDPP4/293T cells.

B1: soluble human DPP4 (sDPP4) receptor (receptor)
chain: SRKTYTLTDYLKNTYRLKLYSLRWISDHEYLYKQENNILVFNAEYGNSSVFLENSTFDEFGHSINDYSISPDGQFILLEYNYVKQWRHSYTASYDIYDLNKRQLITEERIPNNTQWVTWSPVGHKLAYVWNNDIYVKIEPNLPSYRITWTGKEDIIYNGITDWVYEEEVFSAYSALWWSPNGTFLAYAQFNDTEVPLIEYSFYSDESLQYPKTVRVPYPKAGAVNPTVKFFVVNTDSLSSVTNATSIQITAPASMLIGDHYLCDVTWATQERISLQWLRRIQNYSVMDICDYDESSGRWNCLVARQHIEMSTTGWVGRFRPSEPHFTLDGNSFYKIISNEEGYRHICYFQIDKKDCTFITKGTWEVIGIEALTSDYLYYISNEYKGMPGGRNLYKIQLSDYTKVTCLSCELNPERCQYYSVSFSKEAKYYQLRCSGPGLPLYTLHSSVNDKGLRVLEDNSALDKMLQNVQMPSKKLDFIILNETKFWYQMILPPHFDKSKKYPLLLDVYAGPCSQKADTVFRLNWATYLASTENIIVASFDGRGSGYQGDKIMHAINRRLGTFEVEDQIEAARQFSKMGFVDNKRIAIWGWSYGGYVTSMVLGSGSGVFKCGIAVAPVSRWEYYDSVYTERYMGLPTPEDNLDHYRNSTVMSRAENFKQVEYLLIHGTADDNVHFQQSAQISKALVDVGVDFQAMWYTDEDHGIASSTAHQHIYTHMSHFIKQCFSLP
notes: also called hDPP4 in solution
Regarding B1, in test [1], the binding result is listed as “no binding”.

B2: human DPP4 (hDPP4) receptor expressed on 293T cells (receptor)
chain: MKTPWKVLLGLLGAAALVTIITVPVVLLNKGTDDATADSRKTYTLTDYLKNTYRLKLYSLRWISDHEYLYKQENNILVFNAEYGNSSVFLENSTFDEFGHSINDYSISPDGQFILLEYNYVKQWRHSYTASYDIYDLNKRQLITEERIPNNTQWVTWSPVGHKLAYVWNNDIYVKIEPNLPSYRITWTGKEDIIYNGITDWVYEEEVFSAYSALWWSPNGTFLAYAQFNDTEVPLIEYSFYSDESLQYPKTVRVPYPKAGAVNPTVKFFVVNTDSLSSVTNATSIQITAPASMLIGDHYLCDVTWATQERISLQWLRRIQNYSVMDICDYDESSGRWNCLVARQHIEMSTTGWVGRFRPSEPHFTLDGNSFYKIISNEEGYRHICYFQIDKKDCTFITKGTWEVIGIEALTSDYLYYISNEYKGMPGGRNLYKIQLSDYTKVTCLSCELNPERCQYYSVSFSKEAKYYQLRCSGPGLPLYTLHSSVNDKGLRVLEDNSALDKMLQNVQMPSKKLDFIILNETKFWYQMILPPHFDKSKKYPLLLDVYAGPCSQKADTVFRLNWATYLASTENIIVASFDGRGSGYQGDKIMHAINRRLGTFEVEDQIEAARQFSKMGFVDNKRIAIWGWSYGGYVTSMVLGSGSGVFKCGIAVAPVSRWEYYDSVYTERYMGLPTPEDNLDHYRNSTVMSRAENFKQVEYLLIHGTADDNVHFQQSAQISKALVDVGVDFQAMWYTDEDHGIASSTAHQHIYTHMSHFIKQCFSLP
notes: whole, on cells
On to B2, for which, in test [2], the binding result is listed as “no binding (tested: 20 µg/ml)”.

The record behind these values is patent US20230346916A1 (NEW YORK BLOOD CENTER, published 2023).
